Where no end group is shown, it is not given here.
B1: P381S: Cx47 missense mutant P381S (1141C>T), C terminal, construct expressed in HeLa cells or LECs (protein, listed as Homo sapiens)
chain: MSWSFLTRLLEEIHNHSTFVGKVWLTVLVVFRIVLTAVGGEAIYSDEQAKFTCNTRQPGCDNVCYDAFAPLSHVRFWVFQIVVISTPSVMYLGYAVHRLARASEQERRRALRRRPGPRRAPRAHLPPPHAGWPEPADLGEEEPMLGLGEEEEEEETGAAEGAGEEAEEAGAEEACTKAVGADGKAAGTPGPTGQHDGRRRIQREGLMRVYVAQLVARAAFEVAFLVGQYLLYGFEVRPFFPCSRQPCPHVVDCFVSRPTEKTVFLLVMYVVSCLCLLLNLCEMAHLGLGSAQDAVRGRRGPPASAPAPAPRPPPCAFPAAAAGLACPPDYSLVVRAAERARAHDQNLANLALQALRDGAAAGDRDRDSSPCVGLPAASRGSPRAGAPASRTGSATSAGTVGEQGRPGTHERPGAKPRAGSEKGSASSRDGKTTVWI

What was measured:
[1] = test system: hTERTs (telomerase-transfected human dermal lymphatic endothelial cells); test: Intercellular communication assay (parachute Calcein AM dye transfer) with gap junction inhibitors; type: cell-based; settings: GRA 10 μM, Gap 27 500 μM, 40 min, versus control, p<0.05
Procedure: To characterize intercellular gap junction communication over time between seeded donor cells and an acceptor monolayer, LECs were loaded with 2.5 μM Calcein-AM (Invitrogen) in (PBS) for 30 min at 37° C. Excessive dye was removed by rinsing three times in PBS before dislodgment using 500 μl 0.25% Trypsin-EDTA. Detached cells were dispersed with a pipette and 10 μl cell suspensions was added to a confluent LEC monolayer in MCDB-131 supplemented with 25 mM HEPES. To ensure attachment of dye loaded suspended cells, the dish was incubated at 37° C. for 40 min prior to syringe filtration of the medium to remove floating cells that would interfere with subsequent imaging. The dish was thereafter mounted in a temperature controlled open chamber microincubator (Harvard Apparatus) on an inverted Olympus IX81 microscope. […] The Gap27 was handled similarly to GRA and a DMSO control was measured on the same day. Significance was assigned at p<0.05 and treatments were analyzed as independent samples using a Student's t-test. […]
Calcein AM allows cell permeable loading, and with a molecular weight of 662, is frequently used in gap junction communication studies. […] Replicate blinded experiments were performed on at least 2 separate days, and quantitation of dye spread was determined in an automated manner using Metamorph and standardized regions of interest with auto-thresholding. […]

[2] = test system: HeLa cells; test: Cx47 gap junction plaque formation by immunofluorescent confocal microscopy in transfected HeLa cells; type: cell-based, human; settings: near confluent transfected HeLa cells
Procedure: Human neonatal foreskin was collected anonymously as discarded tissue according to an IRB protocol. Samples were collected immediately after harvest in DMEM, then fixed in 2% paraformaldehyde for 2 hrs, then stored in 30% sucrose in 1×PBS overnight for cryosectioning, and sectioned in 6 μm slices at −30° C. Transfected (stable and transient) and untransfected HeLa cells were grown to near confluence in coverslip bottom dishes. All cells were rinsed with PBS and fixed with 2% paraformaldehyde. Subsequently, tissue and HeLa cells were processed similarly: following permeabilization with 0.1% Triton X, cells were blocked with 2% BSA. A human Cx47 antibody (ab) was obtained from the S. Scherer laboratory: polyclonal rabbit against amino acids 344-399 in the cytoplasmic C-terminal tail; we used human CNS tissue and positive oligodendrocyte staining as a positive control and primary antibody delete and rabbit IgG as negative controls (data not shown). Cx47 ab was diluted in 0.5% BSA in a 1:200 ratio, applied to cells and incubated at RT for one hour. Mouse monoclonal Proxl (Chemicon) was used as a lymphatic marker for the foreskin samples. Cells were incubated with the secondary abs (Donkey Anti-Rabbit Cy5 and Donkey Anti-Mouse Cy3; Invitrogen) for one hour at RT and washed; Draq5 was used as a nuclear marker. HeLa images were acquired with an inverted Olympus Fluoview 1000 Confocal Microscope 100× oil, 1.4 NA objective. Foreskin images were acquired on a Zeiss Meta LSM 510 inverted confocal microscope with 40× oil, 1.3 N.A. objective. LECs (primary human microvascular adult dermal lymphatics; Lonza) were grown in fibronectin coated coverslip bottom MatTeks dishes in EGM™-2 MV—Microvascular Endothelial Cell Medium-2 (Lonza Inc.) to approximately 80% confluence, and prepared similarly but a commercially available (AbCam) Cx47 ab, polyclonal rabbit against amino acids 41-70 in the human sequence was used along with Drag 5 nuclear marker and phalloidin to mark f-actin.
Immunofluorescence microscopy determines the presence or absence of Cx47 gap junction plaques when the constructs are transiently expressed in HeLa cells. Cx plaques reflect a physiologic accumulation of Cx channels in the cell membrane between cells (tens to thousands of channels); thus plaques are indicative of normal trafficking and gap junction formation at the cell membrane.
Immunofluorescence microscopy determines the presence or absence of Cx47 gap junction plaques when the constructs are transiently expressed in HeLa cells. A human Cx47 antibody was obtained: polyclonal rabbit against amino acids 344-399 in the cytoplasmic C-terminal tail (Orthmann-Murphy J L, et al. Mol Cell Neurosci 2007; 34:629-41); we used human CNS tissue and positive oligodendrocyte staining as a positive control and primary antibody delete as a negative control (data not shown). Cultured HeLa cells were routinely fixed and stained with the primary antibodies against Cx47, along with a nuclear marker, and transfected cells were identified by their EGFP signal. Plaques were imaged using an Olympus Fluoview 1000 confocal microscope, 100× oil objective.

[3] = test system: HeLa cell pairs; test: Dual whole cell patch clamp recording of coupling current in transfected HeLa cell pairs; type: cell-based, human
Procedure: Coupling currents were recorded using simultaneous double whole-cell patch clamp recordings from isolated pairs of cells that were in contact with one another (determined visually) as previously described. Briefly, the pipette solution consisted of (mM): 130 CsCl, 10 EGTA, 10 HEPES, 3 Mg-ATP, 2 Na-ATP, 0.5 CaCl2, pH 7.3. The culture was bathed in a solution consisting of (mM): 140 NaCl, 5 HEPES, 5 glucose, 4 KCl, 2 CsCl, 2 CaCl2, 2 pyruvate, 1 BaCl2, pH 7.3. Transfected HeLas undergo electrophysiologic analysis in a blinded manner. Pairs of cells were chosen for study only if both expressed the GFP marker indicative of successful transfections; both stable and transient transfectants were analyzed. Patch pipettes were fabricated from borosilicate glass, and coupling currents were amplified by Axopatch 200A amplifiers, filtered at 1 KHz, and digitized at 5 KHz for subsequent analysis using pClamp software (Axon Instruments/Molecular Devices; Sunnyvale, Calif.). All experiments were carried out at room temperature (22° C.). Coupling current was quantified by measuring the peak current recorded in the pair when the neighboring cell received a 100 mV step membrane potential change (in both positive and negative directions). Step changes in membrane potential were delivered to each cell in the pair in sequence and the average current recorded in the neighboring cell was determined and divided by 100 to generate coupling current expressed in pA/mV. Means±SEM were calculated and statistical significance using a one-way analysis of variance and Tukey's post-hoc test, p<0.05.
Coupling current is quantified by measuring the peak current recorded in the pair when the neighboring cell receives a 100 mV step membrane potential change (in both positive and negative directions). Step changes in membrane potential are delivered to each cell in the pair in sequence and the average current recorded in the neighboring cell determined and divided by 100 to generate coupling current expressed in pA/mV (FIG. 6C). Replicate measurements (n=3-6) are made on at least two different days. […] The untransfected HeLa cell pairs also show minimal channel function, as predicted.
Electrophysiologic characteristics of GJIC were measured between HeLa cell pairs transfected with the mutant constructs (as indicated by EGFP expression) by dual whole cell patch clamp recording. All experiments were carried out in a blinded manner. Coupling current is quantified by measuring the peak current recorded in the pair when the neighboring cell receives a 100 mV step membrane potential change (in both positive and negative directions). Step changes in membrane potential are delivered to each cell in the pair in sequence and the average current recorded in the neighboring cell determined and divided by 100 to generate coupling current expressed in pA/mV. Untransfected HeLa cells and cells transfected with empty vector (i.e., no hCx47) were used as additional controls.

[4] = test system: HeLa cells; test: Wound assay (proliferation/migration) in confluent transfected HeLa cells; type: cell-based, human; settings: fraction of original wound in HeLa cell monolayer after 24 hrs; mean ± SEM
Procedure: The wound assay, a measure of proliferation/migration, was performed using differential interference contrast time lapse of over 24 hrs using confluent transfected HeLa cells. Analysis was done using TScratch (Geback T, et al. TScratch: a novel and simple software tool for automated analysis of monolayer wound healing assays. Biotechniques 2009; 46:265-74), mean±SEM of at least 10 positions along wound; the scrape width was normalized to the first image for each position. In all cases a two tailed student's T test was applied with p<0.05 considered significant.

[5] = test system: Adult human dermal lymphatic microvascular endothelial cells; test: Lucifer yellow microinjection dye spread in lymphatic endothelial cells expressing mutant constructs; type: cell-based
Procedure: Adult human dermal lymphatic microvascular endothelial cells were cultured in EGM™-2 MV (both from Lonza). Cells were electroporated with 2 μg cDNA of the EGFP tagged mutant constructs and then selected with G418 as described above. Cells were microinjected using a combination (1:4 ratio) of 70 kd Texas Red dextran (Invitrogen) to mark injected cell for reference and Lucifer yellow, a known gap junction permeable dye (m.w. 443, −2 charge), to assess change in extent of spread (Abbaci M, et al. Advantages and limitations of commonly used methods to assay the molecular permeability of gap junctional intercellular communication. Biotechniques 2008; 45:33-52, 6-62). All cells were injected using constant conditions and cells were scored for dye spread in tiers from reference cell, using constant exposure time and thresholding, and were imaged using a Nikon TE2000 with temperature controlled motorized stage and Qlmaging Retiga CCD camera. Images were obtained using differential interference contrast (DIC) and standard filters for EGFP (identify expression of mutation), DAPI (for Lucifer yellow) and dsRed (for dextran) preinjection, immediately post-injection and 2 min after injection. Results were calculated as mean SEM and statistical significance was determined in comparison to WT-hCx47-EGFP expressing cells using a Mann-Whitney Test.

| Molecule | GJIC by dye transfer in response to gap junction inhibitors [1] | Cx47 plaque formation (in words) [2] | electrical coupling ([3]; Table 6 (Example 4), HeLa cell pairs, 100 mV step, mean ± SEM) [pA/mV] | electrical coupling / functional channels in HeLa cell pairs (in words) ([3]; transfected HeLa cell pairs, voltage step protocol −100 to +100 mV) | wound assay [4] | LEC spread ([5]; Dye spread to tiers of LECs after 2 min, Lucifer yellow microinjection, mean ± SEM) [tiers] | dye transfer of Lucifer yellow after microinjection compared to WT-hCx47-EGFP expressing LECs (in words) ([5]; LECs expressing the mutations) |
| --- | --- | --- | --- | --- | --- | --- | --- |
| CC1(C)[C@@H](O)CC[C@]2(C)[C@H]3C(=O)C=C4[C@@H]5C[C@@](C)(C(=O)O)CC[C@]5(C)CC[C@@]4(C)[C@]3(C)CC[C@@H]12 [GRA, 18α-glycyrrhetinic acid] | significantly reduced | – | – | – | – | – | – |
| SRPTEKTIFII [Gap 27, Synthetic connexin-mimetic peptide targeted to extracellular loop 2 of Cx43] | significantly reduced | – | – | – | – | – | – |
| B1 | – | Cx47 intercellular plaques | 48.2 | well coupled | 0.70 | 2.26 | significantly enhanced dye transfer |
